Measurements from article PMC10167327, “Inositol pyrophosphates activate the vacuolar transport chaperone complex in yeast by disrupting a homotypic SPX domain interaction” (Nature Communications, 2023).
Where a chain is given by its changes, count along the chain named.

T1: Vtc2* (Vtc2(1–553), SPX and TTM domains of Vtc2 without the transmembrane domain) (S. cerevisiae, UniProt P43585 1-553)
T1 construct: Vtc2, subunit of the vacuolar transporter chaperone (VTC) complex, S. cerevisiae, residues 1-553 (SPX and TTM domains, no transmembrane domain); pET27b(+) construct from GenScript with a C-terminal TEV site and His10 tag; source: E. coli Lemo21(DE3) BL21, purified (HisTrap, Superdex 200)
T1 sequence (looked up): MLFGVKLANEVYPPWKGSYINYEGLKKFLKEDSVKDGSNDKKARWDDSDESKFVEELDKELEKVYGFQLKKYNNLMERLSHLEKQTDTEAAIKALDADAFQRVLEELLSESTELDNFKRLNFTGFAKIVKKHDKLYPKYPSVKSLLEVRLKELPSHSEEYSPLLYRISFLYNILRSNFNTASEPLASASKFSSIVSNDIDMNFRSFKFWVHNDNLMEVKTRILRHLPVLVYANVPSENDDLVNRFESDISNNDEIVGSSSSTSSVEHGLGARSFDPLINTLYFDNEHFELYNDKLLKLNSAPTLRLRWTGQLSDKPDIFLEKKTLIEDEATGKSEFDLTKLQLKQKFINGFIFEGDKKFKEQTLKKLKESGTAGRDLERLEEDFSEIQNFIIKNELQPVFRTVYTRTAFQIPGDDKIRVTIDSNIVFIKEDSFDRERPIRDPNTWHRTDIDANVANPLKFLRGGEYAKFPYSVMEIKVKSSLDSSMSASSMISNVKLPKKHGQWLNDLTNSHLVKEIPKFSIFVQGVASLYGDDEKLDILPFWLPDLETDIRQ

B1: SPX2∆α7 (Vtc2(1–182)) (domain or fragment, S. cerevisiae, UniProt P43585 1-182, looked up)
chain: MLFGVKLANEVYPPWKGSYINYEGLKKFLKEDSVKDGSNDKKARWDDSDESKFVEELDKELEKVYGFQLKKYNNLMERLSHLEKQTDTEAAIKALDADAFQRVLEELLSESTELDNFKRLNFTGFAKIVKKHDKLYPKYPSVKSLLEVRLKELPSHSEEYSPLLYRISFLYNILRSNFNTAS
notes: Vtc2, S. cerevisiae, residues 1-182 (SPX domain without helix α7 and the C-terminal linker); source: E. coli Lemo21(DE3) BL21, purified (as SPX2, cation exchange in 20 mM MES pH 6.0); not shown: His5, C-terminal, cleaved
B2: SPX2 S187A (domain or fragment, S. cerevisiae, UniProt P43585 1-201, looked up)
chain: MLFGVKLANEVYPPWKGSYINYEGLKKFLKEDSVKDGSNDKKARWDDSDESKFVEELDKELEKVYGFQLKKYNNLMERLSHLEKQTDTEAAIKALDADAFQRVLEELLSESTELDNFKRLNFTGFAKIVKKHDKLYPKYPSVKSLLEVRLKELPSHSEEYSPLLYRISFLYNILRSNFNTASEPLAAASKFSSIVSNDIDM
notes: Vtc2, S. cerevisiae, residues 1-201 (SPX2) with a point mutation in helix α7; also called serine 187 to alanine; source: E. coli Lemo21(DE3) BL21, purified; not shown: His5, C-terminal, cleaved
B3: SPX2 (SPX domain of Vtc2, Vtc2(1–201)) (domain or fragment, S. cerevisiae, UniProt P43585 1-201, looked up)
chain: B2 chain with A187S
notes: Vtc2, S. cerevisiae, residues 1-201 (SPX domain with helix α7 and the C-terminal linker); Residues of the TEV site may remain at the C-terminus after cleavage; also called Vtc2-SPX domain; source: E. coli Lemo21(DE3) BL21, purified (HisTrap, TEV, reversed HisTrap, cation exchange, Superdex 75); not shown: His5, C-terminal, cleaved
B4: SPX2 K127A (domain or fragment, S. cerevisiae, UniProt P43585 1-201, looked up)
chain: B2 chain with K127A, A187S
notes: Vtc2, S. cerevisiae, residues 1-201 (SPX2) with a pseudo-active point mutation; source: E. coli Lemo21(DE3) BL21, purified; not shown: His5, C-terminal, cleaved
B5: SPX2 S189A (domain or fragment, S. cerevisiae, UniProt P43585 1-201, looked up)
chain: B2 chain with A187S, S189A
notes: Vtc2, S. cerevisiae, residues 1-201 (SPX2) with a point mutation in helix α7; also called serine 189 to alanine; source: E. coli Lemo21(DE3) BL21, purified; not shown: His5, C-terminal, cleaved
B6: SPX2 Y19F (domain or fragment, S. cerevisiae, UniProt P43585 1-201, looked up)
chain: B2 chain with Y19F, A187S
notes: as for B4
B7: SPX2 N121A (domain or fragment, S. cerevisiae, UniProt P43585 1-201, looked up)
chain: B2 chain with N121A, A187S
notes: as for B4
B8: Vtc4* (Vtc4(1–487), SPX and TTM domains of Vtc4 without the transmembrane domain) (domain or fragment)
chain: not shown
modifications: RED-tris-NTA 2nd generation dye on the His tag (MST); RED-NHS 2nd generation dye (MST with TTM2)
notes: Vtc4, catalytic subunit of the vacuolar transporter chaperone (VTC) complex, yeast, residues 1-487 (SPX and TTM domains, no transmembrane domain); pET27b(+) construct from GenScript with a C-terminal TEV site and His10 tag; The dye is absent in NMR and cross-linking; also called Vtc4ΔTM; source: E. coli Lemo21(DE3) BL21, purified (HisTrap, Superdex 200); not shown: His10, C-terminal, kept

Experiments:
Experiment in all cases: MST; His-tagged Vtc4* or TTM4 labelled with RED-tris-NTA 2nd generation dye, titrated with Vtc2* or SPX2 proteins; MST buffer 15 mM HEPES pH 7.0, 50 mM NaCl, 2 mM DTT; Monolith NT.115, 100 % laser power
Details in all cases: both partners purified
[1] = biological target: B8
[2] = biological target: T2, TTM4 (TTM domain of Vtc4, Vtc4(192–487)) (S. cerevisiae, UniProt P47075 192-487, RED-tris-NTA 2nd generation dye on the His tag)
T2 construct: Vtc4, yeast, residues 192-487 (triphosphate tunnel metalloenzyme domain); pET27b(+) construct from GenScript with a C-terminal TEV site and His10 tag; source: E. coli Lemo21(DE3) BL21, purified (HisTrap, Superdex 200); not shown: His10, C-terminal, kept

[3] = biological target: T1, Vtc2* (Vtc2(1–553), SPX and TTM domains …)

T2 sequence (P47075 192-487): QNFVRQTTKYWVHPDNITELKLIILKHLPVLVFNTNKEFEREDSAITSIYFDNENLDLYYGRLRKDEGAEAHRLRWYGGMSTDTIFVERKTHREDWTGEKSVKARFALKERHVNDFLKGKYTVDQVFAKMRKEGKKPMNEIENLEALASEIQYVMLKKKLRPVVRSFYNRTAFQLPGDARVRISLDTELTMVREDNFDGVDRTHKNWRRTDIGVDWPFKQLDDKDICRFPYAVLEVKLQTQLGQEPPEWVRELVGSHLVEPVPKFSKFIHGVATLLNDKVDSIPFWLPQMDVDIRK

Row | binding result [1] | Binder | other results
1 | binds | B1 | –
2 | binds | B2 | –
3 | – | B3 | fold reduction of affinity against Vtc4* [2]: ~20 fold
4 | binds | B4 | –
5 | binds | B5 | –
6 | binds | B6 | –
7 | binds | B7 | –
8 | – | B8 | Kd [3]: 13.8 µM
